Source: patent publication US20090068174

T1: D-val-leu-lys-pNA
T1 chain: VLK

T2: human recombinant IFN-γ, P01579
T2 chain: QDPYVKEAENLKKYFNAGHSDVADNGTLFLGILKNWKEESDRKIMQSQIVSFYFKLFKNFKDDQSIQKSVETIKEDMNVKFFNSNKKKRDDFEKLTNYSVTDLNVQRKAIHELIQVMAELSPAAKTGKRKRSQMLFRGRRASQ

T3: mouse recombinant IFN-γ, P01580
T3 chain: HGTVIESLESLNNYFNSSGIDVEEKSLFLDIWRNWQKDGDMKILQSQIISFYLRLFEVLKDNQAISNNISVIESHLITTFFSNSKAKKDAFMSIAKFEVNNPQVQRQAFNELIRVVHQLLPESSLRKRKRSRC

T4: mouse recombinant TNF-α, P06804
T4 chain: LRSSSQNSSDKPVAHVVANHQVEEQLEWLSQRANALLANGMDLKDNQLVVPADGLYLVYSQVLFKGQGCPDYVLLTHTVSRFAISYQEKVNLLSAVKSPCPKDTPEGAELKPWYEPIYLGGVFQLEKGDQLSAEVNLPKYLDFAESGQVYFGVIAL


What was measured:
D-val-leu-lys-pNA = biological target: T1, D-val-leu-lys-pNA
[1] = biological target: T2, human recombinant IFN-γ, P01579
[2] = biological target: human recombinant TNF-α, P01375
[3] = biological target: T3, mouse recombinant IFN-γ, P01580
[4] = biological target: T4, mouse recombinant TNF-α, P06804

Sequence of human recombinant TNF-α, P01375 (P01375 77-233): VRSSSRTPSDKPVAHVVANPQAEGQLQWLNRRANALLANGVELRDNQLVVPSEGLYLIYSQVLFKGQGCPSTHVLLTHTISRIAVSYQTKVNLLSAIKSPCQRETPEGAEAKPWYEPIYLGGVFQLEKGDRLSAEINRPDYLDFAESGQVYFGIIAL

Protein | Specific activity: hydrolysis of Val-leu-lys-pNA (absorbance at 405 nm) (mOD/min/µg protein) (D-val-leu-lys-pNA) | Proteolysis by Western blotting [1] | Proteolysis by Western blotting (50 ng cytokine, 2.5-10 ng protease, overnight at 37° C.) [2] | Proteolysis by Western blotting [3] | Proteolysis by Western blotting [4] | Specific activity: hydrolysis of salmon protamine (ninhydrin assay) (nmoles Leucine/30 min./µg protein) (salmon protamine sulfate)
Aspergillus oryzae alkaline protease (protein) GLTTQKSAPWGLGSISHKGQQSTDYIYDTSAGEGTYAYVVDSGVNVDHEEFEGRASKAYNAAGGQHVDSIGHGTHVSGTIAGKTYGIAKKASILSVKVFQGESSSTSVILDGFNWAANDIVSKKRTSKAAINMSLGGGYSKAFNDAVENAFEQGVLSVVAAGNENSDAGQTSPASAPDAITVAAIQKSNNRASFSNFGKVVDVFAPGQDILSAWIGSSSATNTISGTSMATPHIVGLSLYLAALENLDGPAAVTKRIKELATKDWKDVKGSPNLLAYNGNA | 117 | the protease did not cleave human IFN-γ | Alkaline protease and, to a lesser extent, 26 kDa protease each produced a similar pattern of cleavage | alkaline protease (AP) purified from the protease powder prepared according to Example 1 evidenced the same substrate specificity | alkaline protease (AP) purified from the protease powder prepared according to Example 1 evidenced the same substrate specificity | 951
Aspergillus oryzae 26 kDa protease (protein) HASADAWASSKAISSTSSPSSFKMRFISVSSLLLALAPALNAVPVEVAGSAQGLDVTLSQVGNTRIKAWKNTGSEDVTFVHLNFFKDAAPVQKVSLFRNATEVQFQGIKQRLITEGLSDDALTTLAPGATIEDEFDIASTSDLSEGGTITINSNGLVPITTDNKVTGYIPFTSNELSIDVDAAEAASVTQAVKILERRTKVTSCSGSRLSALQTALRNTVSLARAAATAAQSGSSSRFQEYFKTTSSSTRSTVAARLNAVANEAASTSSGSTTYYCSDVYGYCSSNVLAYTLPSYNIIANCDLYYSYLPALTSTCHAQDQATTTLHEFTHAPGVYSPGTDDLGYGYSAATALSASQALLNADTYALFANAVNLNC | 2.1 | both deuterolysin and 26 kDa protease cleave human IFN-γ | Alkaline protease and, to a lesser extent, 26 kDa protease each produced a similar pattern of cleavage | – | – | 679
Aspergillus oryzae deuterolysin (neutral protease II) (protein) TEVTDCKGDAESSLTTALSNAAKLANQAAEAAESGDESKFEEYFKTTDQQTRTTVAERLRAVAKEAGSTSGGSTTYHCNDPYGYCEPNVLAYTLPSKNEIANCDIYYSELPPLAQKCHAQDQATTTLHEFTHAPGVYQPGTEDLGYGYDAATQLSAQDALNNADSYALYANAIELKC | 2.3 | both deuterolysin and 26 kDa protease cleave human IFN-γ | deuterolysin was without significant effect | – | – | 677
